Data published in publication PMC5705538 (Journal of molecular biology, 2017).
Values joined by “and” are separate entries in the source; they are usually repeats but may differ in a detail not shown here. Equal entries are not always repeated. Values belong to the binder of their own block, whether it stands above or below them.

Assays:
SEC-MALS = molecular target: the molecule itself; assay: SEC-MALS
M1-linked di-ubiquitin = M1-linked di-ubiquitin (UniProt P0CG48 1-76; P0CG48 1-76); assay: SEC

binding result (M1-linked di-ubiquitin): binds
B2: NEMO UBAN-ZF (246–419) (domain or fragment, human, UniProt Q9Y6K9 246-419, looked up)
chain: KSSVVGSERKRGMQLEDLKQQLQQAEEALVAKQEVIDKLKEEAEQHKIVMETVPVLKAQADIYKADFQAERQAREKLAEKKELLQEQLEQLQREYSKLKASCQESARIEDMRKRHVEVSQAPLPPAPAYLSSPLALPSQRRSPPEEPPDFCCPKCQYQAPDMDTLQIHVMECIE

binding result (M1-linked di-ubiquitin): binds
B3: NEMO UBAN (192–350) (domain or fragment, human, UniProt Q9Y6K9 192-350, looked up)
chain: QQQHSVQVDQLRMQGQSVEAALRMERQAASEEKRKLAQLQVAYHQLFQEYDNHIKSSVVGSERKRGMQLEDLKQQLQQAEEALVAKQEVIDKLKEEAEQHKIVMETVPVLKAQADIYKADFQAERQAREKLAEKKELLQEQLEQLQREYSKLKASCQES

The next lines start with the binder.

B1: NEMO (112–350) (domain or fragment, human, UniProt Q9Y6K9 112-350, looked up)
chain: LDLKRQKEQALREVEHLKRCQQQMAEDKASVKAQVTSLLGELQESQSRLEAATKECQALEGRARAASEQARQLESEREALQQQHSVQVDQLRMQGQSVEAALRMERQAASEEKRKLAQLQVAYHQLFQEYDNHIKSSVVGSERKRGMQLEDLKQQLQQAEEALVAKQEVIDKLKEEAEQHKIVMETVPVLKAQADIYKADFQAERQAREKLAEKKELLQEQLEQLQREYSKLKASCQES
stoichiometry N (SEC-MALS): 2

B4: NEMO (150–350) (domain or fragment, human, UniProt Q9Y6K9 150-350, looked up)
chain: LGELQESQSRLEAATKECQALEGRARAASEQARQLESEREALQQQHSVQVDQLRMQGQSVEAALRMERQAASEEKRKLAQLQVAYHQLFQEYDNHIKSSVVGSERKRGMQLEDLKQQLQQAEEALVAKQEVIDKLKEEAEQHKIVMETVPVLKAQADIYKADFQAERQAREKLAEKKELLQEQLEQLQREYSKLKASCQES
stoichiometry N (SEC-MALS): 2 and 4
binding result (M1-linked di-ubiquitin): binds
